For assay [1], the target named is T1, recombinant human CLEC12A-His (human, UniProt Q5QGZ9 65-265).
T1 construct: also called hCLEC12A-His; hCLEC12A
T1 sequence: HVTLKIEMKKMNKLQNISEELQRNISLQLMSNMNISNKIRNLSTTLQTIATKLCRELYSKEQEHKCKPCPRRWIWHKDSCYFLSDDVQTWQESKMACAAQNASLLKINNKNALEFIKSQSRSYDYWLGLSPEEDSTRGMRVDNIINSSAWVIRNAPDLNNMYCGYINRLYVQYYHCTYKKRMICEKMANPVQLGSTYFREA
Kind of assay: SPR 37C.

For assay [2], the target named is T1, recombinant human CLEC12A-His. Kind of assay: SPR 37C, average.
Assay [3] concerns the target T2, recombinant human CD16a V158 (human, UniProt P08637 17-208, biotinylated).
T2 construct: also called FcγRIIIa V158; hCD16aV
Kind of assay: SPR, summary table.
Source text: (§1) Human and cyno CD64, high and low affinity alleles of CD16a (V158 and F158, respectively), two alleles of CD32a (H131 and R131), CD16b, CD32b and cynomolgus CD16 were captured via biotin on a primed Biacore chip, prepared according to the manufacturer's instructions.

Another assay has as its target T3, recombinant human CD32b (human, UniProt P31994 46-217, limits assumed, biotinylated).
T3 construct: also called FcγRIIb
T3 sequence (looked up): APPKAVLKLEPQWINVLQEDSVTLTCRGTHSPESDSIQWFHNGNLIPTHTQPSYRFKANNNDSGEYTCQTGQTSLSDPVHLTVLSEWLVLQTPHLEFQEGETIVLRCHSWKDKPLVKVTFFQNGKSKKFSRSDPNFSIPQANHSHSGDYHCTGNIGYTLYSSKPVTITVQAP
Put plainly: SPR, summary table. (In general: In SPR one partner is held on a chip, and binding of the other changes the refractive index at the surface.)

The target in assay [4] is T4, recombinant human CD32a H131 (human, UniProt P12318 36-218, limits assumed, biotinylated).
T4 construct: also called FcγRIIa H131
T4 sequence (looked up): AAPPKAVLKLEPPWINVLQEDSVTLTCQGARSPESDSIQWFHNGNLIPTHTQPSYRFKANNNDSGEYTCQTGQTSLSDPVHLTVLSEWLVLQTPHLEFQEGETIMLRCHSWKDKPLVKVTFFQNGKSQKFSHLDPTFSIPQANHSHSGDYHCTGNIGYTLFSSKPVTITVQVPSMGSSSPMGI
Put plainly: SPR, summary table.
Source text: as §1

For assay [5], the target named is T5, recombinant human CD16a F158 (human, UniProt P08637 17-208).
T5 construct: also called FcγRIIIa F158
Put plainly: SPR, summary table.
Source text: as §1

Assay [6] concerns the target T6, recombinant cynomolgus CD16 (cynomolgus monkey, UniProt Q8SPW2 17-208, biotinylated).
T6 construct: also called cFcγRIII; cyno CD16
Kind of assay: SPR, summary table.
Source text: as §1

Assay [7] deals with T7, recombinant cynomolgus FcRn (cynomolgus monkey, UniProt Q8SPV9 24-297; Q8SPW0 21-119).
T7 construct: also called cFcRn; cyno FcRn
Kind of assay: SPR 25C, pH 6.0, steady state; pH 6.0; second replicate.
Procedure: Each FcRn binding experiment consisted of multiple cycles utilizing varying concentrations of analytes. […] As no-signal, negative controls, a 0 nM blank cycle was placed at the start of each concentration series, and a blank amine coupling modified chip surface lacking FcRn were used. Each experimental cycle included association, dissociation, and regeneration steps. The association step consisted of 60 sec analyte injection and was followed by a 60 sec dissociation step. Surface regeneration (60 sec injection of HBS-EP+ buffer, pH 7.4) completed each kinetic cycle. All steps were executed at a flow rate of 30 μL/min and at 25° C. MBS-EP+ buffer, pH 6.0 was used as a running buffer. The data were fitted to a steady state affinity model with Biacore Insight evaluation software. Chi² (calculated by the software) related to the calculated Rₘₐₓ was used to assess goodness of the fit.

Another assay deals with T8, mFc-hNKG2D (human, UniProt P26718 73-216).
T8 construct: extracellular domain; Recombinant mFc-tagged NKG2D dimer, made in house; also called human NKG2D; not shown: mouse Fc tag
T8 sequence (looked up): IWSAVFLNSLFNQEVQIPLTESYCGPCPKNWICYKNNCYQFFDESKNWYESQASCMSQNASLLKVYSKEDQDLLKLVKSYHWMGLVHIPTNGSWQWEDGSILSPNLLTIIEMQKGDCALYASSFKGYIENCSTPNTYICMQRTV
Kind of assay: SPR; control sample (HST pH 6.0 study).

The next assay has as its target T9, Human CLEC12A-His (human, UniProt Q5QGZ9 65-265).
T9 construct: Recombinant soluble protein made in house; also called hCLEC12A-His; hCLEC12A; not shown: His tag
T9 sequence: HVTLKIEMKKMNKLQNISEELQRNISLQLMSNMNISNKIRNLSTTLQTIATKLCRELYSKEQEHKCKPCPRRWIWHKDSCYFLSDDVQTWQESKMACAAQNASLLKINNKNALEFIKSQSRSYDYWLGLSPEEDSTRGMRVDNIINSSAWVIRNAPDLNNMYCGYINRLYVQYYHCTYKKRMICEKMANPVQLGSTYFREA
Kind of assay: SPR; control sample (HST pH 6.0 study).

In the next assay the target is T10, Human CD16a V158 (human, UniProt P08637 17-208, biotinylated).
T10 construct: Bought recombinant receptor; also called hCD16a (V158); hFcγRIIIa V158
Kind of assay: SPR; control sample (HST pH 6.0 study).

Where “and” joins values, the source holds several entries; their conditions need not be identical. Identical values can stand only once.

T10 sequence (P08637 17-208 F176V limits assumed): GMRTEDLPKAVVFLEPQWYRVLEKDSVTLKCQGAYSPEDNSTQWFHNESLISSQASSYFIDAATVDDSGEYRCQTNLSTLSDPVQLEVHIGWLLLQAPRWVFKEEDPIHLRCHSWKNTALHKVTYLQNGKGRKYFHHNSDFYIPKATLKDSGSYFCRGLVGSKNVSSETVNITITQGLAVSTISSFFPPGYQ
T7 sequence (Q8SPV9 24-297 limits assumed, chain 1 of 2): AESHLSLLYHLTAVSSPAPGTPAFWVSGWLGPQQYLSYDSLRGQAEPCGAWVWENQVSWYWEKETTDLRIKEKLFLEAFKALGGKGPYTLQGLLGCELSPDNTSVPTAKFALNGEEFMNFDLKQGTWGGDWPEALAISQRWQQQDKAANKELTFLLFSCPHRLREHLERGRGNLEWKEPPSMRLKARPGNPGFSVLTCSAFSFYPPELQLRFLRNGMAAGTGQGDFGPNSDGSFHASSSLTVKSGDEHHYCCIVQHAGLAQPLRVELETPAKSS
T7 sequence (Q8SPW0 21-119 limits assumed, chain 2 of 2): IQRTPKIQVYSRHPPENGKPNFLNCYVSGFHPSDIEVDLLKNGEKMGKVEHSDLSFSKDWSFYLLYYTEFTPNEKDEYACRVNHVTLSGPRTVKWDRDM
T2 sequence (P08637 17-208 F176V limits assumed): as the sequence (P08637 17-208 F176V limits assumed) above
T5 sequence (P08637 17-208 limits assumed): as the sequence (P08637 17-208 F176V limits assumed) above, with V160F counted along it
T6 sequence (Q8SPW2 17-208 limits assumed): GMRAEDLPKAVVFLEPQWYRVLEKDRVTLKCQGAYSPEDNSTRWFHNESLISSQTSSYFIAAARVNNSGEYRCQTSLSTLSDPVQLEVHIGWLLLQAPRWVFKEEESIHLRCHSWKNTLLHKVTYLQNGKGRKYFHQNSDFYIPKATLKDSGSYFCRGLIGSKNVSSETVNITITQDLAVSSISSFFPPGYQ
Source text for recombinant human CD32b: as §1

B1: F3'-1602 TriNKET (other)
chain: QLQLQESGPGLVKPSETLSLTCTVSGFSLTNYGLHWIRQPPGKCLEWIGVIWSGGKTDYNPSLKSRVTISKDTSKNQFSLKLSSVQAADTAVYYCAKYDYDDSLDYWGQGTLVTVSSGGGGSGGGGSGGGGSGGGGSDIQMTQSPSSLSASVGDRVTITCHASQNINFWLSWYQQKPGKAPKLLIYEASNLHTGVPSRFSGSGSGTRFTLTISSLQPEDIATYYCQQSHSYPLTFGCGTKLEIKGSDKTHTCPPCPAPELLGGPSVFLFPPKPKDTLMISRTPEVTCVVVDVSHEDPEVKFNWYVDGVEVHNAKTKPREEQYNSTYRVVSVLTVLHQDWLNGKEYKCKVSNKALPAPIEKTISKAKGQPREPRVYTLPPCRDELTKNQVSLTCLVKGFYPSDIAVEWESNGQPENNYKTTPPVLVSDGSFTLYSKLTVDKSRWQQGNVFSCSVMHEALHNHYTQKSLSLSPG
heavy: EVQLVESGGGLVKPGGSLRLSCAASGFTFSSYSMNWVRQAPGKGLEWVSSISSSSSYIYYADSVKGRFTISRDNAKNSLYLQMNSLRAEDTAVYYCARGAPIGAAAGWFDPWGQGTLVTVSSASTKGPSVFPLAPSSKSTSGGTAALGCLVKDYFPEPVTVSWNSGALTSGVHTFPAVLQSSGLYSLSSVVTVPSSSLGTQTYICNVNHKPSNTKVDKKVEPKSCDKTHTCPPCPAPELLGGPSVFLFPPKPKDTLMISRTPEVTCVVVDVSHEDPEVKFNWYVDGVEVHNAKTKPREEQYNSTYRVVSVLTVLHQDWLNGKEYKCKVSNKALPAPIEKTISKAKGQPREPQVCTLPPSRDELTENQVSLTCLVKGFYPSDIAVEWESNGQPENNYKTTPPVLDSDGSFFLYSWLTVDKSRWQQGNVFSCSVMHEALHNHYTQKSLSLSPG
light: DIQMTQSPSSVSASVGDRVTITCRASQGISSWLAWYQQKPGKAPKLLIYAASSLQSGVPSRFSGSGSGTDFTLTISSLQPEDFATYYCQQGVSFPRTFGGGTKVEIKRTVAAPSVFIFPPSDEQLKSGTASVVCLLNNFYPREAKVQWKVDNALQSGNSQESVTEQDSKDSTYSLSSTLTLSKADYEKHKVYACEVTHQGLSSPVTKSFNRGEC
notes: CLEC12A scFv-Fc, NKG2D A49MI Fab-Fc, human IgG1 Fc; also called AB0237
With B1, the dissociation constant Kd (as a rule, a measure of binding affinity in units of concentration) was 1.2 nM and 1.19 nM in [1]; 0.57 nM in assay [2]; 238 nM in assay [3]; 6600 nM with recombinant human CD32b; 900 nM in assay [4]; 1110 nM in [5]. Also, the dissociation constant Kd in assay [6] came out at 306 nM; in assay [7], 1100 nM. Further, the koff (usually the first-order rate constant of dissociation) in [1] is 0.000952 s⁻¹ and 0.000913 s⁻¹; in assay [2] it was 0.000494 s⁻¹. The on-rate constant (kon) (usually the rate constant with which the complex forms) is 791000 M⁻¹ s⁻¹ and 768000 M⁻¹ s⁻¹ in [1]; 844000 M⁻¹ s⁻¹ in [2].

B2: AB0192 TriNKET (other)
chain: EVQLVESGGGVVQPGGSLRLSCAASGFTFNAFGMHWVRQAPGKCLEWVAFISSGSTSIYYANTVKGRFTISRDNSKNTLYLQMNSLRAEDTAVYYCARDGYPTGGAMDYWGQGTSVTVSSGGGGSGGGGSGGGGSGGGGSDIQMTQSPSSLSASVGDRVTITCKASQDIYNYLSWFQQKPGKAPKPLIYRANILVSGVPSRFSGSGSGQDYTFTISSLQPEDIATYYCLQFDAFPFTFGCGTKLEIKGSDKTHTCPPCPAPELLGGPSVFLFPPKPKDTLMISRTPEVTCVVVDVSHEDPEVKFNWYVDGVEVHNAKTKPREEQYNSTYRVVSVLTVLHQDWLNGKEYKCKVSNKALPAPIEKTISKAKGQPREPRVYTLPPCRDELTKNQVSLTCLVKGFYPSDIAVEWESNGQPENNYKTTPPVLVSDGSFTLYSKLTVDKSRWQQGNVFSCSVMHEALHNHYTQKSLSLSPG
heavy: EVQLVESGGGLVKPGGSLRLSCAASGFTFSSYSMNWVRQAPGKGLEWVSSISSSSSYIYYADSVKGRFTISRDNAKNSLYLQMNSLRAEDTAVYYCARGAPIGAAAGWFDPWGQGTLVTVSSASTKGPSVFPLAPSSKSTSGGTAALGCLVKDYFPEPVTVSWNSGALTSGVHTFPAVLQSSGLYSLSSVVTVPSSSLGTQTYICNVNHKPSNTKVDKKVEPKSCDKTHTCPPCPAPELLGGPSVFLFPPKPKDTLMISRTPEVTCVVVDVSHEDPEVKFNWYVDGVEVHNAKTKPREEQYNSTYRVVSVLTVLHQDWLNGKEYKCKVSNKALPAPIEKTISKAKGQPREPQVCTLPPSRDELTENQVSLTCLVKGFYPSDIAVEWESNGQPENNYKTTPPVLDSDGSFFLYSWLTVDKSRWQQGNVFSCSVMHEALHNHYTQKSLSLSPG
light: DIQMTQSPSSVSASVGDRVTITCRASQGISSWLAWYQQKPGKAPKLLIYAASSLQSGVPSRFSGSGSGTDFTLTISSLQPEDFATYYCQQGVSFPRTFGGGTKVEIKRTVAAPSVFIFPPSDEQLKSGTASVVCLLNNFYPREAKVQWKVDNALQSGNSQESVTEQDSKDSTYSLSSTLTLSKADYEKHKVYACEVTHQGLSSPVTKSFNRGEC
notes: the condition stands under assay; also called AB0192 Lot AB0192-005
In the assay with mFc-hNKG2D, B2 displayed a Kd of 588 nM, a koff of 0.122 s⁻¹ and a kon of 208000 M⁻¹ s⁻¹. Besides, in the assay with Human CLEC12A-His, binding was put at a Kd of 1.81 nM, the koff turned out to be 0.0014 s⁻¹ and the on-rate constant (kon) was found to be 776000 M⁻¹ s⁻¹. For the same molecule, in the assay with Human CD16a V158, the Kd is 171 nM, the dissociation rate constant (koff) worked out at 0.0199 s⁻¹ and the on-rate (kon) stood at 117000 M⁻¹ s⁻¹.

The record behind these values is patent US20220119534A1 (DRAGONFLY THERAPEUTICS, published 2022).
